In patent US20230183314A1:

Experiments:
[1] = biological target: human prostate specific membrane antigen (PSMA) (human) (UniProt Q04609); assay: flow cytometry, 22Rv1 cells (low PSMA expression) stained with the PE conjugate; number printed over the white bar
[2] = biological target: human prostate specific membrane antigen (PSMA) (human) (UniProt Q04609); assay: flow cytometry, LNCaP cells (high PSMA expression) stained with the PE conjugate; number printed over the white bar

human prostate specific membrane antigen (PSMA) (human), sequence (Q04609 whole entry): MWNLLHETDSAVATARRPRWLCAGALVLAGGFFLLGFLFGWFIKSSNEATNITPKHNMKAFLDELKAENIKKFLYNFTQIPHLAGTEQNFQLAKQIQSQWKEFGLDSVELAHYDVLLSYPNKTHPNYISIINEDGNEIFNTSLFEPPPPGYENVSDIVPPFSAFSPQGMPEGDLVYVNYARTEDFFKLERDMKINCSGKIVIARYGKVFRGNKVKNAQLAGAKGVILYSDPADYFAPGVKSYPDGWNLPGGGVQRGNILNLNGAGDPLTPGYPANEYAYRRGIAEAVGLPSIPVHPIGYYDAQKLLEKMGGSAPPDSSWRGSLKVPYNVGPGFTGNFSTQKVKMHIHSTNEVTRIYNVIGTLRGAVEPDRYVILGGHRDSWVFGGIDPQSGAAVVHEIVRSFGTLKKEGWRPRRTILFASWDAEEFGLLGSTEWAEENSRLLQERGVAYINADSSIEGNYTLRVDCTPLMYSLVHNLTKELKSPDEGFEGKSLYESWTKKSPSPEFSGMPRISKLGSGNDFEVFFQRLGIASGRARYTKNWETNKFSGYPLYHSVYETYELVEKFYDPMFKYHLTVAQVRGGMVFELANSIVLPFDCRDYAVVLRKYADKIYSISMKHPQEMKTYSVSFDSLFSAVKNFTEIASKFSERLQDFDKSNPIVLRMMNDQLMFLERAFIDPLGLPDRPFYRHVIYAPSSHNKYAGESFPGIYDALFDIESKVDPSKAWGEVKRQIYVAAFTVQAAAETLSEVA

MFI [1]: 13.7 | MFI [2]: 263
Substance: Anti PSMA antibody-PE conjugate from Biolegend (clone LNI-17 catalog #342504)
